The DeepSol protein solubility set

experiment: soluble on expression in E. coli; label from the status in PepcDB or PDB records

| Sequence | soluble on expression in E. coli |
| --- | --- |
| MALGLKCFRMVHPTFRNYLAASIRPVSEVTLKTVHERQHGHRQYMAYSAVPVRHFATKKAKAKGKGQSQTRVNINAALVEDIINLEEVNEEMKSVIEALKDNFNKTLNIRTSPGSLDKIAVVTADGKLALNQISQISMKSPQLILVNMASFPECTAAAIKAIRESGMNLNPEVEGTLIRVPIPQVTREHREMLVKLAKQNTNKAKDSLRKVRTNSMNKLKKSKDTVSEDTIRLIEKQISQMADDTVAELDRHLAVKTKELLG | soluble |
| MGSDKIHHHHHHMKAFDRDASEPRIGLAYGPGMAEFAARNAHLVDYIEVPFEQLRFSPAVAELQQTIPFVLHCASLSVAGFVPPDDSTVDAIERTAVQTGTPWIGEHLAYISADPVGEALGGTGEPTSLSYTLCPQLSDETVRRVVDNLAALRPHFPVPLIVENSPQYFPIPGSTMGMTDFIRAITDRCDVGLLLDLSHFLITAHNTGAEVHRELARLPLERVVEVHLSGMSVQSGTAWDDHSLPASPILFELLERLLDVARPRALTFEYNWSPYFPLSVLTTHIERARQLMGLA | not soluble |
| MNRVYCTARSFRTSVKSNGWVHKWSRFKRWQEMQAAHVENVQEKQRNKNFIRLPTGLYITPERPDDLNPKKAPADMTRKDTGQLPMELLTWHTQMRYVDHSIDNIKRYRRYKKFQHMQYDQRVIPERLLFLGPDLAAAHFLVHRGAAVKFVGDDNWYKKDKWNRYSLPGRKVDNLFIEAIDASGTQIMFEGLENLENLQKLRLLRLANSEYVDDWCIGRIGGLLPNLEMLDLSGCHRISSKGLMGLKASKNLKFLRLEGLSGIRNLGKSALILEDLLPKLQILGMDYELSFRQIEAENRLLEQERVVLDGRGNAFVEDDNSRLFLVMSTSSDDKAVTDDHDNPIMTSTVRREIPKMDDAEFEEINALSGGKLRHLLVGSPSGYEWTETTERILEHEAELNLTDNVITDPKMLPRGKRPEFELPEHRSRLEDAKAQFLKEFGDFEENSDKEQLKSH | not soluble |
| MGSDKIHHHHHHMSHISTADIEQVILPSSRDLGGFSVRRALPAPMRQMVGPFIFLDSFGPVRFGEGEGIDTRPHPHIGLSTLTYLLEGELTHRDSERYVQAIRPGEVNVMVAGAGIVHSERTPEHQRATGGKLAGLQSWIALPKKSEETAPLFQHLDAGSLPTVSGEGIGMKLLAGNLHGRQSPATVFSDLFAAEVHLEAGARYRIDGEHVERAIFVVAGALEIVGQDGNFGQDRLLVFKPGSEIVVKATGPARFLAFGGEPLPEKRFIRWNFVATDQERIRHAADLWRERGFPGVPDDDEFIPLPENFR | not soluble |
| MGSDKIHHHHHHMLSNLWKRQAPQMVGIDIGSHEVKAILLGKTADGYKILSHAAVPVKKGAINDHDIRDADAVVECLRQIKRILPKSVKYAAVAVSGSAVMTKVIYMDASLSEEEMEAQIEIEADNLIPYSLDEVSIDFETLNVNSTDPSKVDVLLSACRTDNIDTRVDALDEVELETKVVDVEGYALGRAVELVLGQLPEGARQKAVAMVDIGANMTTFCVVESGETTFIREQAFGGELFTQSILSFYGMSYEQAEKAKIEGDLPRNYMFEVLSPFQTQLLQQIKRTLQIYCTSSGKDKVDYLVLCGGTSKLEGMANLLTNELGVHTIIADPFQGCLHADESVKNILQPSISKYMVACGLALRSYGQWRT | not soluble |
| QDIAADIAPERVSNDPLVNLGEAVVEEEEKVGALEDLFMETKQDGVNTDDPIAHLKFSMQREDDYLIRDVEKPEPAPAKTIENTRQVVDDSFSIHSEFDIPNLIPEDWLGGVATSKESVEPAAEQAKQAAFIPEDFAHTKPVSPQASVVQPDVNQPQQPQYEAPLSHATSNVTQRAEPVSQKWEEVTQAFVPSAQPTQPETKAKEAQQGFVSNESLAIESVAHSSDIGKAFYEGLGISNPDLISNEALLFKQMGACLRLCIDNLQKDLHEVESLKGEQGLSEADSNLAELMLTLNSQNLLSPNELVEQMLDELNDHQIIFNKALNELLIEQSETNDPVMFANDVASKSMFTTKSKLWGEYLEFYANNRRQMNETSLKGLIKKNYTKAIKGSHA | not soluble |
| SGGTSSSTAHLAVVNIIGTIDSSNQSVNSEDTNKALERAFEAKNSKAVALNINSPGGSPVQSDEIWQEIRYLKKQHPDKKVYAVIGDMGASGAYYIASAADEIIVNPSSLVGSIGVIMPNYGITGLAQKLGIEDRTLTSGSNKDILSMTKPVNPAQREHIQSVLDNVHAHFINAVKEGRGTRLKSNDPAIFSGLFWTGEQAIQLGVAD | not soluble |
